The text below walks through data of paper PMC7912279 (2021).

The target of test [1] is T1, gastrin-releasing peptide receptor (Homo sapiens, UniProt P30550). Kind of test: LigandTracer on PC-3 cells (1:2 model, KD2).
Test [2] addresses T1, gastrin-releasing peptide receptor. In words: LigandTracer on PC-3 cells (1:2 model, KD1).

T1 sequence (P30550 whole entry): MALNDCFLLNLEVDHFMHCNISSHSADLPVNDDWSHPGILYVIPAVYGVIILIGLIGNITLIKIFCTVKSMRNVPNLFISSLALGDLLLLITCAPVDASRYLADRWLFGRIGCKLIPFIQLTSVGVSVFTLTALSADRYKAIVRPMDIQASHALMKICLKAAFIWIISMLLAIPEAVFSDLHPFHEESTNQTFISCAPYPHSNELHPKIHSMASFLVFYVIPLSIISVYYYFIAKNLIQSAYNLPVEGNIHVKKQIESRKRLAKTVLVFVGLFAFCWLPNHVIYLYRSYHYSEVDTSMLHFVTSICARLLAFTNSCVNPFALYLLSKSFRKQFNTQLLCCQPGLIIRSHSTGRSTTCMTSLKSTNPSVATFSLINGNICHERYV

B1: maSES-PEG2-RM26 (peptide)
chain: SESFQWAVGHL
modifications: 99mTc, mercaptoacetyl-Ser-Glu-Ser-PEG2-D-Phe-Gln-Trp-Ala-Val-Gly-His-Sta-Leu-NH2
As to B1, the Kd in test [1] worked out at 1.4 nM; in test [2], 0.849 nM.

B2: maSSS-PEG2-RM26 (peptide)
chain: SSSFQWAVGHL
modifications: 99mTc, mercaptoacetyl-Ser-Ser-Ser-PEG2-D-Phe-Gln-Trp-Ala-Val-Gly-His-Sta-Leu-NH2
As for B2, the Kd in test [1] stood at 1.2 nM; in test [2], 0.061 nM.
